Test results reported in the supplement of paper PMC10567573.

B1: KLHL12 (parent)
chain: LDYTADEDGVWYSVAPMNVRRGLA

Variants of: B1
Experiment: protein stability index of a GFP-peptide fusion (GPS, HEK-293T) (PSI 1-6); higher = more stable
Details: c terminus: a fixed tail appended
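Note: lentivirally expressed fusions sorted by FACS into six bins by GFP to DsRed ratio, PSI derived from sequencing read proportions per bin multiplied by bin number.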

Variant	protein stability index
D2Y	2.43
G9M	2.26
G9F	1.99
G9R	1.75
G9A	2.17
G9D	2.63
G9E	2.33
G9I	1.88
G9Q	2.21
G9Y	2.37
G9N	2.5
G9L	1.61
G9P	2.75
G9H	2.2
G9V	1.82
G9K	1.75
G9T	2.15
G9S	2.03
G9C	1.47
G9W	1.94
A5Q	2.06
A5D	2.76
A5M	2.05
A5I	2.99

Variant	protein stability index
A5P	2.23
A5L	1.29
A5G	2.08
A5S	1.8
A5V	2.02
A5W	2.46
A5C	1.68
A5R	2.15
A5K	2.35
A5T	1.94
A5F	1.37
A5E	2.14
A5N	2.19
A5Y	2.6
A5H	1.93
W11R	2.8
W11H	3.05
W11I	2.61
W11A	3.86
W11Y	2.39
W11D	4.35
W11C	3.05
W11V	3.62
W11S	3.62

Variant	protein stability index
W11E	4.55
W11M	2.72
W11L	3.21
W11F	2.85
W11N	3.97
W11Q	3.38
W11K	3.18
W11P	3.56
W11G	3.69
W11T	2.99
V14W	2
V14L	1.82
V14H	3.39
V14T	3
V14N	2.83
V14K	4.17
V14F	2.18
V14I	1.67
V14Y	2.83
V14G	2.83
V14P	2.63
V14R	3.33
V14C	2.5
V14M	2.33

Variant	protein stability index
V14A	2.76
V14D	3.79
V14E	3.61
V14S	2.96
V14Q	3.31
N18E	1.83
N18W	2.37
N18I	2.47
N18T	1.77
N18Q	1.58
N18C	1.35
N18M	1.46
N18F	2.19
N18V	2.35
N18L	1.97
N18P	2.57
N18S	2.01
N18K	1.54
N18G	2.54
N18Y	2.24
N18D	2.2
N18H	1.95
N18A	1.92
R20D	2.65

Variant	protein stability index
R20A	2.1
R20I	1.98
R20L	2.26
R20C	1.54
R20H	1.75
R20M	2.4
R20E	3.32
R20K	1.89
R20F	1.7
R20G	1.72
V19A	1.93
V19N	2.72
V19E	1.86
V19C	1.7
V19F	1.78
V19M	1.52
V19K	2.65
V19W	1.66
V19H	2.98
V19R	2.61
V19P	2.11
V19D	2.32
V19L	2.22
V19S	2.62

Variant	protein stability index
V19Y	1.78
V19Q	2.49
V19T	1.91
V19G	1.95
V19I	2.42
T4S	2.81
T4N	2.24
T4M	2.48
T4R	1.51
T4F	1.7
T4G	2.1
T4A	2.24
T4H	1.77
T4Q	2.45
T4C	1.98
T4K	2.57
T4W	1.74
T4P	3.09
T4D	2.41
T4I	2.12
T4L	4.91
T4E	2.69
T4V	1.98
T4Y	2.57

Variant	protein stability index
M17E	2.59
M17V	2.59
M17G	2.28
M17A	2.45
M17H	2.41
M17R	3.34
M17D	2.47
M17T	2.48
M17S	2.64
M17Y	1.86
M17I	3.28
M17F	1.55
M17Q	2.46
M17K	2.71
M17N	2.54
M17W	1.89
M17P	2.58
M17C	2.01
M17L	1.74
D8P	2.26
D8E	2.79
D8M	1.93
D8R	1.56
D8T	1.48

Variant	protein stability index
D8W	2.1
D8K	2.24
D8Y	2.23
D8Q	2.49
D8A	1.67
D8G	1.74
D8V	1.6
D8L	1.73
D8F	1.21
D8I	1.96
D8C	2.81
D8N	1.42
D8H	1.82
D8S	2.69
E7R	2.77
E7D	1.46
E7Q	2.43
E7L	2.79
E7W	2.19
E7T	1.64
E7P	2.02
E7V	1.44
E7A	1.28
E7N	2.09

Variant	protein stability index
E7S	1.8
E7H	1.89
E7Y	1.95
E7G	1.7
E7M	1.91
E7F	2.55
E7K	2.01
E7I	2.43
E7C	1.65
V10F	1.86
V10M	2.32
V10L	3.09
V10R	2.7
V10P	2.47
V10G	3.38
V10Y	2.44
V10W	1.63
V10A	3.22
V10T	2.82
V10N	3.06
V10H	2.44
V10C	2.44
V10I	1.84
V10E	3.37

Variant	protein stability index
V10S	2.2
V10Q	2.99
V10K	3.18
V10D	3.36
P16Q	2.16
P16G	2.08
P16N	2.24
P16L	2.41
P16W	1.59
P16H	2.57
P16V	1.85
P16S	1.79
P16E	3.28
P16T	2.62
P16D	3.07
P16Y	2.56
P16C	1.72
P16K	1.95
P16M	1.88
P16R	2.25
P16F	1.84
P16I	1.79
P16A	2.33
S13V	2.28

Variant	protein stability index
S13M	1.92
S13A	1.71
S13Q	2.06
S13F	2.6
S13K	2.29
S13I	1.43
S13E	2.77
S13P	2.57
S13H	3.65
S13W	1.37
S13D	3.34
S13G	2.69
S13L	1.89
S13R	1.94
S13T	1.92
S13N	2.13
S13C	1.97
S13Y	2.21
D6Q	1.7
D6M	2.18
D6Y	1.51
D6K	2.44
D6P	2.46
D6S	1.91

Variant	protein stability index
D6F	2.98
D6L	2.08
D6A	1.93
D6R	2.47
D6V	1.99
D6E	2.16
D6N	1.27
D6C	2.61
D6T	1.91
D6I	1.4
D6W	2.71
D6G	2.36
D6H	1.85
Y3W	1.94
Y3G	3.22
Y3E	3.6
Y3H	3.43
Y3T	3.01
Y3K	3.58
Y3V	1.78
Y3S	3.61
Y3D	3.35
Y3P	3.6
Y3Q	3.69

Variant	protein stability index
Y3N	3.78
Y3A	3.65
Y3L	2.22
Y3F	2.29
Y3M	2.33
Y3I	1.85
Y3C	2.47
Y3R	2.99
A15W	1.57
A15E	2.29
A15M	1.76
A15I	1.76
A15R	2.19
A15H	1.7
A15F	1.82
A15K	2.13
A15T	2.04
A15G	2.06
A15L	2.08
A15P	2.76
A15S	1.83
A15D	2.32
A15C	1.74
A15N	2.33

Variant	protein stability index
A15Q	2.24
A15V	1.76
A15Y	2.04
Y12D	3.74
Y12T	3.12
Y12I	1.89
Y12C	3.07
Y12E	4.04
Y12K	3.63
Y12N	3.45
Y12Q	3.61
Y12G	2.84
Y12A	3.55
Y12R	3.37
Y12H	3.24
Y12L	2.02
Y12W	2.3
Y12V	2.32
Y12M	2.36
Y12P	3.52
Y12F	2.23
Y12S	3.12
